Test results published in EP2014310A2 (Dyax Corporation, dated 2009).
Bridge positions count the residues as written; N and C are the ends. Ends that are not written are not given here. I, II: the chains in the order shown.

Experiments:
[1] = target: T1, KDR/VEGF complex (KDR-Fc mixed or saturated with VEGF) (human, UniProt P35968 20-764; P15692 27-191); experiment: Biacore, KDR-Fc chip saturated with VEGF, unlabeled peptide
T1 construct: anisotropy: two fold molar excess of VEGF mixed with KDR-Fc; Biacore: KDR-Fc chip saturated with VEGF; also called KDR:VEGF165 complex
T1 sequence (P35968 20-764, chain 1 of 2): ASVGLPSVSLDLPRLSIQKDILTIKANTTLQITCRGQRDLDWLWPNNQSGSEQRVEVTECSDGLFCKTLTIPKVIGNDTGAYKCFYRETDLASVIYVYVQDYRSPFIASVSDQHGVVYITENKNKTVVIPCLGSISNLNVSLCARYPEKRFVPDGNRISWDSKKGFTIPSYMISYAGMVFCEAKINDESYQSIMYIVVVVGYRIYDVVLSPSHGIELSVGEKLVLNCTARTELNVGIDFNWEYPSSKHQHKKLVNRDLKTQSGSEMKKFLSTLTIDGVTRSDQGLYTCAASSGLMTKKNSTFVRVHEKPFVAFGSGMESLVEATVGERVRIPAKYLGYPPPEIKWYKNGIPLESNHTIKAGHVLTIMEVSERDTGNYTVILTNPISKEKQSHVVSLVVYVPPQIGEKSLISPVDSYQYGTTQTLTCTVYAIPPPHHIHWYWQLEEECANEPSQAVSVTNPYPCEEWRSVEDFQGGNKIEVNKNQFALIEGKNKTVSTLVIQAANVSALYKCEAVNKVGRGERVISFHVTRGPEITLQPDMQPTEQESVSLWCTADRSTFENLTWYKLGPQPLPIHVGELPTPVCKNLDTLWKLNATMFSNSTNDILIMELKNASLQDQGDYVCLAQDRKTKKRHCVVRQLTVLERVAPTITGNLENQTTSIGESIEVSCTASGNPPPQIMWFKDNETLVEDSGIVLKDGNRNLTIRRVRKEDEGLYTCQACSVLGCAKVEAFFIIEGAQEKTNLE
T1 sequence (P15692 other isoform, or with tags, fused parts or gaps, chain 2 of 2): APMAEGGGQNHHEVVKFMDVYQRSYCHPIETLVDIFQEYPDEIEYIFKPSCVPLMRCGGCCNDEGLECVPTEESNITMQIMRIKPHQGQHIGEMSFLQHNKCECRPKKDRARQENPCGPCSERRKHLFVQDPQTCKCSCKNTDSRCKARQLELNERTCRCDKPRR

[2] = target: T2, VEGF165 (Peprotech #100-20) (UniProt P15692-4 27-191); experiment: fluorescence anisotropy, fluorescein-labeled peptide
T2 sequence (P15692 other isoform, or with tags, fused parts or gaps limits assumed): as the sequence (P15692 other isoform, or with tags, fused parts or gaps, chain 2 of 2) above

[3] = target: T1, KDR/VEGF complex (KDR-Fc mixed or …); experiment: fluorescence anisotropy, fluorescein-labeled peptide, KDR-Fc with two fold excess VEGF
[4] = target: T3, human KDR-Fc fusion (R&D Systems #357-KD-050) (human, UniProt P35968 20-764); experiment: fluorescence anisotropy, fluorescein-labeled peptide, KDR-Fc alone
T3 construct: bought
T3 sequence (P35968 20-764): as the sequence (P35968 20-764, chain 1 of 2) above

[5] = target: KDR on human umbilical vein endothelial cells (HUVECs) (human, UniProt P35968 20-1356); experiment: cell-based or functional assay
Sequence of KDR on human umbilical vein endothelial cells (HUVECs) (P35968 20-1356): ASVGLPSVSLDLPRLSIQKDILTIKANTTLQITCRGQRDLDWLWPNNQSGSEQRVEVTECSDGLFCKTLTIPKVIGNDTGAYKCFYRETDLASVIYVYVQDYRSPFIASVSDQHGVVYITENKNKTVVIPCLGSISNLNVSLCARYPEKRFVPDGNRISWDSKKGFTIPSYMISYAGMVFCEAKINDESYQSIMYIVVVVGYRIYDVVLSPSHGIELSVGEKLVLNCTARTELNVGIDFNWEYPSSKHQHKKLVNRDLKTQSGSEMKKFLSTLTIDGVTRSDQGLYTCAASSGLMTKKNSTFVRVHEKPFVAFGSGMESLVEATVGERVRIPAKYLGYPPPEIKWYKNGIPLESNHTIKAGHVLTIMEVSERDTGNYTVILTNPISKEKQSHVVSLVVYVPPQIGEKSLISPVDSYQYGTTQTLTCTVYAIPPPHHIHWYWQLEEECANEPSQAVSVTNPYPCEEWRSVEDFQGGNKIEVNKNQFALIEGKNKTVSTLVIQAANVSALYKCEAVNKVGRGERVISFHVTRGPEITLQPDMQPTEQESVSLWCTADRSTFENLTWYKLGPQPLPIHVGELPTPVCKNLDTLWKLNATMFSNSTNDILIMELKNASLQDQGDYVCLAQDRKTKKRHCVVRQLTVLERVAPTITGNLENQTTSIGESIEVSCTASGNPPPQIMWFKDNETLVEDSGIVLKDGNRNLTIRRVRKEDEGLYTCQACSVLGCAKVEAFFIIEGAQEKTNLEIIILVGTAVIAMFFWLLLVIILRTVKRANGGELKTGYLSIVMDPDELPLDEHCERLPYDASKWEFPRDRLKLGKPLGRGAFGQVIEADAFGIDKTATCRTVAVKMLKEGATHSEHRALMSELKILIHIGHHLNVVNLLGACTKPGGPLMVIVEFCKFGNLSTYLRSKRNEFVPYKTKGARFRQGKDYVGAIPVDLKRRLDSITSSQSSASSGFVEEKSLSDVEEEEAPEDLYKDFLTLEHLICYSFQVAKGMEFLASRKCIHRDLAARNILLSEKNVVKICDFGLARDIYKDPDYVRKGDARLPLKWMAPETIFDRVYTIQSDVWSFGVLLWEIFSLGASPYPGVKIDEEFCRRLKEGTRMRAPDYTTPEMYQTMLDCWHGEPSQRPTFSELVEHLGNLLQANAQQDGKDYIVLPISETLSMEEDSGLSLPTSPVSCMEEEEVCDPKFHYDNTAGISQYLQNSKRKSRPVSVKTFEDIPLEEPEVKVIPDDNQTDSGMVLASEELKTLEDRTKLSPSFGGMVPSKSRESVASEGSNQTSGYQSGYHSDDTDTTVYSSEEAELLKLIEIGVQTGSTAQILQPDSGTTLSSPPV

[6] = target: T3, human KDR-Fc fusion (R&D Systems …); experiment: Biacore steady state, KD1 of double rectangular hyperbola, KDR-Fc 6000RU
[7] = target: T3, human KDR-Fc fusion (R&D Systems …); experiment: Biacore steady state at the higher immobilization densities
[8] = target: T3, human KDR-Fc fusion (R&D Systems …); experiment: Biacore steady state, KD1 of double rectangular hyperbola, KDR-Fc 3000RU
[9] = target: T3, human KDR-Fc fusion (R&D Systems …); experiment: Biacore steady state, KD1 of double rectangular hyperbola, KDR-Fc 1600RU
[10] = target: T3, human KDR-Fc fusion (R&D Systems …); experiment: phage binding screen on KDR-Fc; class legend in paragraph 246
[11] = target: T4, murine KDR-Fc fusion (R&D Systems #443-KD-050) (murine, UniProt P35918 20-762); experiment: BIAcore, KD1 = kd1/ka1, fluorescein-labeled peptide, murine KDR-Fc 2700RU
T4 construct: bought; also called recombinant murine KDR-Fc; rmKDR-Fc
T4 sequence (P35918 20-762): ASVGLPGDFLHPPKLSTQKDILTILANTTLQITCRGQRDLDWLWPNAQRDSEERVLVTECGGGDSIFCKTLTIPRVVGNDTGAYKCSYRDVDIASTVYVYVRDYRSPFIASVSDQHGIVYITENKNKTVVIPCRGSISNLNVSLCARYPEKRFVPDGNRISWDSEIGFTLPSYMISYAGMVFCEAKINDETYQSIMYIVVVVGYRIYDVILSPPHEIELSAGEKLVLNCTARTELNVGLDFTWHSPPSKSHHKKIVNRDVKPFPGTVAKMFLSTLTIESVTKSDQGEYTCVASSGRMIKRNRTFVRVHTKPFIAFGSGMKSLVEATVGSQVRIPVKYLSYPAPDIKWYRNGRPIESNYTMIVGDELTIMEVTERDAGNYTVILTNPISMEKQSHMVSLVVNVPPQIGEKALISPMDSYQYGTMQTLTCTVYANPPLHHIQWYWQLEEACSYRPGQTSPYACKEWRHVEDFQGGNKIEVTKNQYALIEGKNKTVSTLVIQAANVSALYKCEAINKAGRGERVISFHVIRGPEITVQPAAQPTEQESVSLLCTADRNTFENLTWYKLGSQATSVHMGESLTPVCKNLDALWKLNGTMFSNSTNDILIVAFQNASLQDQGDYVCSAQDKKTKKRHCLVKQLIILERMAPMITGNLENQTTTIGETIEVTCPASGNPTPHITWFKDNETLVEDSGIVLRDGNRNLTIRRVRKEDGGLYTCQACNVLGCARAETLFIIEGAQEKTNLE

[12] = target: T4, murine KDR-Fc fusion (R&D Systems …); experiment: BIAcore, KD1 = kd1/ka1, fluorescein-labeled peptide, murine KDR-Fc 5000RU
[13] = target: T3, human KDR-Fc fusion (R&D Systems …); experiment: fluorescence anisotropy, fluorescein-labeled peptide
[14] = target: T2, VEGF165 (Peprotech #100-20); experiment: fluorescence anisotropy, fluorescein-labeled peptide, VEGF alone
[15] = target: T3, human KDR-Fc fusion (R&D Systems …); experiment: Biacore, KDR-Fc on CM5 chip, unlabeled peptide
[16] = target: KDR on transiently KDR-transfected 293H cells (human) (UniProt P35968); experiment: competition with 300 pM 125I-VEGF on KDR-transfected 293H cells, peptide 0.3 µM
Sequence of KDR on transiently KDR-transfected 293H cells (human) (P35968 20-1356): as the sequence (P35968 20-1356) above

[17] = target: KDR on transiently KDR-transfected 293H cells (human) (UniProt P35968); experiment: competition with 300 pM 125I-VEGF on KDR-transfected 293H cells, peptide 30 µM
[18] = target: T3, human KDR-Fc fusion (R&D Systems …); experiment: SPR
[19] = target: T5, KDR on transiently KDR-transfected 293H cells (human, UniProt P35968 20-1356); experiment: displacement of 5.5 nM peptide/streptavidin-HRP complex from KDR-transfected 293H cells
T5 construct: whole, on cells; also called KDR-expressing cells
T5 sequence (P35968 20-1356): as above

[20] = target: human KDR-Fc fusion (R&D Systems #357-KD-050) (human) (UniProt P35968); experiment: SPR, reference D2
Sequence of human KDR-Fc fusion (R&D Systems #357-KD-050) (human) (P35968 20-764): as the sequence (P35968 20-764, chain 1 of 2) above

[21] = target: T4, murine KDR-Fc fusion (R&D Systems …); experiment: BIAcore, KD1 = kd1/ka1, murine KDR-Fc 2700RU
[22] = target: T4, murine KDR-Fc fusion (R&D Systems …); experiment: BIAcore, KD1 = kd1/ka1, murine KDR-Fc 5000RU
[23] = target: T5, KDR on transiently KDR-transfected 293H …; experiment: displacement of 5.5 nM streptavidin-HRP/binding peptide complex from KDR-transfected 293H cells

B1: SEQ ID NO:323 (peptide)
peptide: Ac-AGYGPCKNMPPWMCWHEGTGGGK-NH2
modifications: disulfide 6-14 (inferred); not fully specified; also: C-terminal Lys fluorescein-labeled in some assay forms
[1]
  Kd: 420 nM
[2]
  binding result: no binding
[3]
  Kd: 180 nM
[4]
  Kd: 1800 nM

B2: D6, peptide heterodimer composed of SEQ ID NO:277 and SEQ ID NO:294 (peptide)
peptide 1: AGPTWCEDDWYYCWLFGTGGGK
peptide 2: GDSRVCWEDSWGGEVCFRYDPGGGK
modifications: linker (positions not given here) via glutaric acid; disulfide I:6-I:13, II:6-II:16 (inferred); also: heterodimer joined by glutaric acid linker, attachment places not given here
notes: made with glutaric acid bis N-hydroxysuccinimidyl ester
[5]
  IC50, VEGF-induced migration of HUVECs: ~12.5 nM
[6]
  Kd: 17 nM
[7]
  Kd: ~0.6 nM
[8]
  Kd: 25.5 nM
[9]
  Kd: 46 nM

B3: phage isolate NSHCYIWDGMWLCFPD (peptide)
peptide: NSHCYIWDGMWLCFPD
[10]
  binding result: binds

B4: SEQ ID NO:277 (peptide)
peptide: Ac-AGPTWCEDDWYYCWLFGTGGGK-NH2
modifications: disulfide 6-13 (inferred); not fully specified
[11]
  Kd: 36.4 nM
[12]
  Kd: 33.6 nM

B5: SEQ ID NO:320 (peptide)
peptide: Ac-AGMPWCVEKDHWDCWWWGTGGGK-NH2
modifications: disulfide 6-14 (inferred); not fully specified; also: C-terminal Lys fluorescein-labeled in some assay forms
[13]
  binding result: no binding
[3]
  Kd: 140 nM
[14]
  Kd: 10000 nM

B6: SEQ ID NO:322 (peptide)
peptide: Ac-AGYGPCAEMSPWLCWYPGTGGGK-NH2
modifications: disulfide 6-14 (inferred); not fully specified; also: C-terminal Lys fluorescein-labeled in some assay forms
[2]
  binding result: no binding
[3]
  Kd: 130 nM
[4]
  Kd: 3700 nM

B7: SEQ ID NO:326 (peptide)
peptide: Ac-AQEGWFRNPQEIMGFGDSWDKPGGGGGK-NH2
modifications: not fully specified; also: C-terminal Lys fluorescein-labeled in some assay forms
[2]
  binding result: no binding
[13]
  binding result: no binding
[3]
  Kd: 1400 nM

B8: SEQ ID NO:321 (peptide)
peptide: Ac-AGPGPCKGYMPHQCWYMGTGGGK-NH2
modifications: disulfide 6-14 (inferred); not fully specified; also: C-terminal Lys fluorescein-labeled in some assay forms
[1]
  Kd: 80 nM
[2]
  binding result: no binding
[3]
  Kd: 60 nM
[4]
  Kd: 400 nM

B9: SEQ ID NO:294 (peptide)
peptide: Ac-GDSRVCWEDSWGGEVCFRYDPGGGK-NH2
modifications: not fully specified; cysteine pairing not given here
[5]
  VEGF-induced KDR phosphorylation in HUVECs: ≥ 50 % inhibition at 10 µM
[15]
  Kd: 120 nM
[16]
  % inhibition of 125I-labeled VEGF binding: 52.3%
[17]
  % inhibition of 125I-labeled VEGF binding: 96.3%

B10: SEQ ID NO:325 (peptide)
peptide: Ac-AQAPAWTFGTNWRSIQRVDSLTGGGGGK-NH2
modifications: not fully specified; also: C-terminal Lys fluorescein-labeled in some assay forms
[2]
  binding result: no binding
[13]
  binding result: no binding
[3]
  Kd: 840 nM

B11: tail-to-tail heterodimer comprising the polypeptides of SEQ ID NO:305 and SEQ ID NO:306 (peptide)
peptide 1: AQEPEGYAYWEVITLYHEEDGDGGK
peptide 2: AQAFPRFGGDDYWIQQYLRYTDGGK
modifications: not fully specified (bridges); also: tail-to-tail linker not given here
[18]
  Kd: 11 nM

B12: SEQ ID NO:462, fragment of SEQ ID NO:356 (Asp-Trp-Tyr-Tyr motif with Gly-Gly-Gly-Lys) (peptide)
peptide: DWYYGGGK
[19]
  IC50: 850 nM

B13: dimer 1 (D1) (peptide)
peptide 1: Ac-AGPTWCEDDWYYCWLFGTGGGK
peptide 2: Ac-VCWEDSWGGEVCFRYDPGGG
modifications: cysteine pairing not given here; also: heterodimer, C-terminal Lys joined through Biotin-JJK-glutaryl-JJ linker to the second peptide, amide, C-terminus joined to a lysine amide of the linker
[5]
  IC50, VEGF-induced phosphorylation of KDR in HUVECs: 0.5 to 1 nM
[20]
  fold higher affinity than D2: 10 fold
[21]
  Kd: 17.5 nM
[22]
  Kd: 16 nM

B14: SEQ ID NO:454, lactam disulfide bridge replacement analog (peptide)
peptide: Ac-AGPTWKEDDWYYEWLFGTGGGK-NH2
modifications: lactam 6-13
[23]
  IC50: 108 nM

B15: phage isolate DHHCYLHNGQWICYPF (peptide)
peptide: DHHCYLHNGQWICYPF
[10]
  binding result: binds
